In the experiment the target is TcdB from C. difficile strain M68 (Clostridium difficile strain M68). The experiment in a line: cell-based or functional assay.

Several values for one entry are separate records, joined by “and”; a condition that tells them apart may be missing. Equal values may be shown once.

B1: DARPin dimer DLD-4 (designed binder)
chain: GSDLGKKLLEAARAGQDDEVRILMANGADVNADDRIGMTPLHLAAIGGHLEIVEVLLKNGADVNADDVHGRTPLHLAAGRGHLEIVEVLHGADVNAPDRWGRTPLHLAAHHGHLEIVEVLLKYGADVNAQDKFGKTAFDISIDNGNEDLAEILQSSSEFGGGGSGGGGSGGGGSASDLGKKLLEAARAGQDDEVRILMANGADVNATDHLGVTPLHLAAVLGHLEIVEVLLKHGADVNAYDILGRTPLHLAAWRGHLEIVEVLLKYGADVNADDTSGTTPLHLAAGEGHLEIVEVLLKYGADVNAQDKFGKTAFDISIDNGNEDLAEILQSSS
On to B1, for which the EC50 against TcdB (in vitro neutralization) was found to be 0.02 nM; the TcdB neutralization EC50 (Vero cells, CellTiterGlo) was determined as 0.016 nM; the fold more efficacious than bezlotoxumab at inhibiting TcdB (CellTiter-Glo assay) was determined as 33 fold.

B2: dimeric DARPin U3D16 (designed binder)
chain: GSDLGKKLLEAARAGQDDEVRILMANGADVNADDRIGMTPLHLAAIGGHLEIVEVLLKNGADVNADDVHGRTPLHLAAGRGHLEIVEVLHGADVNAPDRWGRTPLHLAAHHGHLEIVEVLLKYGADVNAQDKFGKTAFDISIDSGNEDLAEILQSSSGGGGSGGGGSGGGGSGSDLGKKLLEAARAGQDDEVRILMANGADVNAADRYGPTPLHLAAYRGHLEIVEVLLKHGADVNAKDVLGWTPLHLAAWIGHLEIVEVLLKNGADVNARDRTGETPLHLAAAIGHLEIVEVLLKNGADVNAQDKFGKTAFDISIDNGNEDLAEILQSSS
As to B2, the fold higher neutralization activity than D16 alone was 10 fold and 20 fold.

(Values after US20220226430A1.)
